Data taken from the supplement of paper PMC11246515.
± gives the standard deviation of the averaged measurements.

Test: total protein half-life in vivo (active degradation + dilution); higher = more stable protein
[1] = E. coli NCM3722 delta-clpP delta-lon delta-hslV, growth: N-lim chemostat, doubling time 6 h
[2] = E. coli NCM3722 delta-clpP, growth: N-lim chemostat, doubling time 6 h
[3] = E. coli NCM3722 delta-hslV, growth: N-lim chemostat, doubling time 6 h
[4] = E. coli NCM3722 delta-lon, growth: N-lim chemostat, doubling time 6 h
[5] = E. coli NCM3722 delta-smpB, growth: N-lim chemostat, doubling time 6 h
[6] = wild type E. coli NCM3722, growth: C-lim chemostat, doubling time 3 h
[7] = wild type E. coli NCM3722, growth: C-lim chemostat, doubling time 6 h
[8] = wild type E. coli NCM3722, growth: C-lim chemostat, doubling time 12 h
[9] = wild type E. coli NCM3722, growth: N-lim chemostat, doubling time 6 h
[10] = wild type E. coli NCM3722, growth: N-lim chemostat, doubling time 12 h
[11] = wild type E. coli NCM3722, growth: P-lim chemostat, doubling time 6 h
[12] = wild type E. coli NCM3722, growth: P-lim chemostat, doubling time 12 h

Sequence	total protein half-life in vivo [1] [h]	total protein half-life in vivo [2] [h]	total protein half-life in vivo [3] [h]	total protein half-life in vivo [4] [h]	total protein half-life in vivo [5] [h]	total protein half-life in vivo [6] [h]	total protein half-life in vivo [7] [h]	total protein half-life in vivo [8] [h]	total protein half-life in vivo [9] [h]	total protein half-life in vivo [10] [h]	total protein half-life in vivo [11] [h]	total protein half-life in vivo [12] [h]
MAEFETTFADLGLKAPILEALNDLGYEKPSPIQAECIPHLLNGRDVLGMAQTGSGKTAAFSLPLLQNLDPELKAPQILVLAPTRELAVQVAEAMTDFSKHMRGVNVVALYGGQRYDVQLRALRQGPQIVVGTPGRLLDHLKRGTLDLSKLSGLVLDEADEMLRMGFIEDVETIMAQIPEGHQTALFSATMPEAIRRITRRFMKEPQEVRIQSSVTTRPDISQSYWTVWGMRKNEALVRFLEAEDFDAAIIFVRTKNATLEVAEALERNGYNSAALNGDMNQALREQTLERLKDGRLDILIATDVAARGLDVERISLVVNYDIPMDSESYVHRIGRTGRAGRAGRALLFVENRERRLLRNIERTMKLTIPEVELPNAELLGKRRLEKFAAKVQQQLESSDLDQYRALLSKIQPTAEGEELDLETLAAALLKMAQGERTLIVPPDAPMRPKREFRDRDDRGPRDRNDRGPRGDREDRPRRERRDVGDMQLYRIEVGRDDGVEVRHIVGAIANEGDISSRYIGNIKLFASHSTIELPKGMPGEVLQHFTRTRILNKPMNMQLLGDAQPHTGGERRGGGRGFGGERREGGRNFSGERREGGRGDGRRFSGERREGRAPRRDDSTGRRRFGGDA [P0A9P6]	5.66 ± 0.077	0.972 ± 0.029	0.567 ± 0.1	4.78 ± 0.32	0.849 ± 0.089	1.4 ± 0.34	1.34 ± 0.29	1.19 ± 0.17	2.26 ± 2	0.902 ± 0.095	0.635 ± 0.37	0.864 ± 0.3
MAEIGIFVGTMYGNSLLVAEEAEAILTAQGHKATVFEDPELSDWLPYQDKYVLVVTSTTGQGDLPDSIVPLFQGIKDSLGFQPNLRYGVIALGDSSYVNFCNGGKQFDALLQEQSAQRVGEMLLIDASENPEPETESNPWVEQWGTLLS	6.12 ± 0.9	6.03 ± 1.5	5.34 ± 0.23	6 ± 0.2	5.34 ± 0.1	3.57 ± 0.5	5.8 ± 0.3	13.42 ± 0.023	5.7 ± 0.42	9.75 ± 0.96	6.03 ± 0.35	
MAELSDQEMLRYNRQIILRGFDFDGQEALKDSRVLIVGLGGLGCAASQYLASAGVGNLTLLDFDTVSLSNLQRQTLHSDATVGQPKVESARDALTRINPHIAITPVNALLDDAELAALIAEHDLVLDCTDNVAVRNQLNAGCFAAKVPLVSGAAIRMEGQITVFTYQDGEPCYRCLSRLFGENALTCVEAGVMAPLIGVIGSLQAMEAIKMLAGYGKPASGKIVMYDAMTCQFREMKLMRNPGCEVCGQ	5.3 ± 1.4	4.37 ± 0.4	4.1 ± 0.1	6.67 ± 1.7	4.36 ± 0.4	3.03 ± 0.46	6.09 ± 0.5	11.3 ± 0.97	4.66 ± 0.53	9.95	5.7448 ± 0.0056	13.2 ± 1.6
MAEMKNLKIEVVRYNPEVDTAPHSAFYEVPYDATTSLLDALGYIKDNLAPDLSYRWSCRMAICGSCGMMVNNVPKLACKTFLRDYTDGMKVEALANFPIERDLVVDMTHFIESLEAIKPYIIGNSRTADQGTNIQTPAQMAKYHQFSGCINCGLCYAACPQFGLNPEFIGPAAITLAHRYNEDSRDHGKKERMAQLNSQNGVWSCTFVGYCSEVCPKHVDPAAAIQQGKVESSKDFLIATLKPR [P0AC47]		5.78 ± 0.38	6.96 ± 1	5.92 ± 0.62	5.82 ± 0.086	3.07 ± 0.19	5.76 ± 0.11	11 ± 2.1	6.1 ± 0.5	12.2 ± 1.8	5.48 ± 0.44	13.1 ± 1.2
MAESTVTADSKLTSSDTRRRIWAIVGASSGNLVEWFDFYVYSFCSLYFAHIFFPSGNTTTQLLQTAGVFAAGFLMRPIGGWLFGRIADKHGRKKSMLLSVCMMCFGSLVIACLPGYETIGTWAPALLLLARLFQGLSVGGEYGTSATYMSEVAVEGRKGFYASFQYVTLIGGQLLALLVVVVLQHTMEDAALREWGWRIPFALGAVLAVVALWLRRQLDETSQQETRALKEAGSLKGLWRNRRAFIMVLGFTAAGSLCFYTFTTYMQKYLVNTAGMHANVASGIMTAALFVFMLIQPLIGALSDKIGRRTSMLCFGSLAAIFTVPILSALQNVSSPYAAFGLVMCALLIVSFYTSISGILKAEMFPAQVRALGVGLSYAVANAIFGGSAEYVALSLKSIGMETAFFWYVTLMAVVAFLVSLMLHRKGKGMRL [P0AEX3]					1.61 ± 0.23	2.88 ± 0.36	4.51	10 ± 2.4	2.01		4.35 ± 0.23	6.27 ± 0.29
MAGESFILMGVSGSGKTLIGSKVAALLSAKFIDGDDLHPAKNIDKMSQGIPLSDEDRLPWLERLNDASYSLYKKNETGFIVCSSLKKQYRDILRKGSPHVHFLWLDGDYETILARMQRRAGHFMPVALLKSQFEALERPQADEQDIVRIDINHDIANVTEQCRQAVLAIRQNRICAKEGSASDQRCE	4.25					2.82 ± 0.78	2.8 ± 0.43	3.67	1.6			
MAGHSKWANTRHRKAAQDAKRGKIFTKIIRELVTAAKLGGGDPDANPRLRAAVDKALSNNMTRDTLNRAIARGVGGDDDANMETIIYEGYGPGGTAIMIECLSDNRNRTVAEVRHAFSKCGGNLGTDGSVAYLFSKKGVISFEKGDEDTIMEAALEAGAEDVVTYDDGAIDVYTAWEEMGKVRDALEAAGLKADSAEVSMIPSTKADMDAETAPKLMRLIDMLEDCDDVQEVYHNGEISDEVAATL [P0A8A0]	5.28 ± 0.71	4.61 ± 0.6	3.03 ± 0.19	3.29 ± 0.17	2.94 ± 0.12	2.524 ± 0.013	4.01 ± 0.095	7.21 ± 0.53	3.15 ± 0.058	4.09 ± 0.034	3.69 ± 0.66	6.79 ± 0.84
